Source: the supplement of paper PMC9170038

Test system: K4 kissing-loop RNA reporter
Test: apparent KD of K4 kissing-loop reporter; higher = weaker reporter binding
Conditions: Eterna round: R107
Method: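 RNA-MaP round R107: designed RNA switches with theophylline, tryptophan, arginine or FMN aptamers are transcribed on-chip within common flanks. They are titrated with a labelled K4 kissing-loop RNA reporter in RNA-MaP buffer (100 mM Tris pH 7.5, 80 mM KCl, 4 mM MgCl2), without ligand or with the indicated ligand. Median apparent KD per design.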

[1] = input ligand: theophylline 20 uM
[2] = input ligand: tryptophan 2.4 mM
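Further: bound reporter read as fluorescence of individual clusters on recovered sequencing chips by microscopy, with normalized cluster intensities fitted with a binding model.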

Sequence	apparent KD of K4 kissing-loop reporter (input ligand: FMN 200 uM) [nM]	apparent KD of K4 kissing-loop reporter (input ligand: arginine 13.2 mM) [nM]	apparent KD of K4 kissing-loop reporter (input ligand: none) [nM]	apparent KD of K4 kissing-loop reporter [1] [nM]	apparent KD of K4 kissing-loop reporter [2] [nM]
GAACGAGUGAUGUUCGUUAUUAUGCAUUCCGAGGAUAUGGGAUUAGCCAGAAGGCGGAAUCAAUCUUCGAGUGAUGUUCGAAGAU [Same State FMN A GF 11]	129	138	142	119	136
UUUUUAUAAGAGGAUACCAGUACAAAUAAAGUACAUUAAUAGUAGAGUGAUGUUCUAAAGUACCCUUGGCAGCUUAGAGUAAGUU [ExTheophylB.C]	161	281	174	239	115
ACGGAUACGCGAGAUACCAGAGGCAUUCGCCAGCGACCAUAAUGUCCCGAGAGUGAUGUUCUCCCUUGGCAGCUCAUGGUUAAUU [theeternabot_exclusion_KL_Theo_B_2]	484	400	468	570	385
UGACUGGACUGAAGGAGCGUUCAGGUAGGUCGCUAAGGAGUGAUGUUCCAUAGAAGGAGCGAACAGGUAGGUCGCAGUCUAGUCU [ArgBS 29 #DoubleAptamer #SwitchBubble]	139	169	163	190	102
AGUGAUGUUGAGUUAUGUUAGUGAAGUGAUCGAGGACCGGUACGGCCGCCACUCGAGUGAUGAGUGAGUGAUGUUUGUUUAGUGA [bvbmullin]	639	487	857	692	404
UCCCGAGUGAUGUUCGGCGCGGUCACCGAAGGAGCGGGCGAAAGCCCAGGUAGGUCGCGGUAGCGGAGUGAUUCUCCGCGACCGC [Same State Arginine A GF 24]	509	241	286	344	298
AUUUUUUUAUCAGGAUAUUAGUGUUGGUUUGUUUUGUUAGUGAUGUUGAUAUUUGUUUUAUGUAUUUAAGAAGGGAUUGUGAUGU [huupullin]	473	371	409	381	264
ACGCGCGAGACGGCCGCCACUAUACGUCGAGUGAUGUUCGAGCCAAGAUGUCGUUACGUUUAUAAUAGGACCGGGUCAAUGGAUU [theeternabot_sameState_KL_Trp_B_19]	596	512	583	661	513
AGCUGCCGAAUAGAUACCAGUGUCUUUAGUGAUGUUUCAGAGCUGGCACGAUCAGAAGGUCACCCUUGGCAGCUAGUGCCAGCGU [theeternabot_exclusion_KL_Theo_B_39]	340	145	261	344	267
UAUAUAGUGACGGCCGCCACUAUAGUGAUGUUAUUGUUAGAGUGAUGUUUUGUUGUUUAAUUUUGUAGGACCGGGUUAUAUGUUA [tbbtmullin]	632	418	504	497	446
AGGUGAGAGUGAAGGAGCGAUCGCGCCAGUGAUGUUGGUGAGCAUGACGAAAGUCAUGCCGAUCAGGUAGGUCGCACUCUUACUC [Omei KL Arginine B SS B v3]	700	421	663	547	798
AGUACGGACACGGCCGCCACUCAGAAGAAGACAGUAGUGAUGUUACUGAUGGUGAGAAUAAUAAAGAGGACCGGGUGUCGUGCAA [#05 K4 Tryptophan B Same State]	270	191	286	230	171
GGGAGGAGUGGUGUUGAUUAGGGAGCGGAAGGAGCGCCGAGGAAGGCAGGUAGGUCGCCGGAUUAUAGUGAUGUUAUGAAGAGGG [ExArg.J]	663	716	679	1010	577
UAUUUAGUGACGGCCGCCACUAUUGUGAUUUAAUUGUUUGAGUGAUGUUUUGAUGUUUGAUUUUGUAGGACCGGGUUAUGUGUUA [tyttmullin]	1020	745	827	791	749
AAGGGCUAGGCGGCCGCCACUGGUUGUGAACACAUACGAGCCAGUGAUGUUGGUAUUGUGUGCGGCAGGACCGGGCCUAGCCGAA [Exclusion - Tryptophan B (Freestyle 23)]	360	299	346	300	322
UGACAUUGCUCAGAUACCAGACAUGAGCAUCAGCCAUGUGCCAAAUAAACGUACAUAAAUGUCCCUUGGCAGCUGAGCAAUGUCU [TheoBX 11]	53	33.2	38.3	118	64.9

Sequence	apparent KD of K4 kissing-loop reporter (input ligand: FMN 200 uM) [nM]	apparent KD of K4 kissing-loop reporter (input ligand: arginine 13.2 mM) [nM]	apparent KD of K4 kissing-loop reporter (input ligand: none) [nM]	apparent KD of K4 kissing-loop reporter [1] [nM]	apparent KD of K4 kissing-loop reporter [2] [nM]
GCCAGAGCGCGAAGGAGCGCCGUGACAGGUUGCUGCCGUGGGCAGUGAUGUUGCUCAAUCUGGCAGGUAGGUCGCGUGCUCUGGC	269	219	273	226	248
GGUGUGCCAAGUGAUGUUUGGCGUUCUCACCGAGGACCGGUACGGCCGCCACUCGUUAACUGACCAAGUAUCUUUACCUCGGAGA [theeternabot_sameState_KL_Trp_A_8]	168	141	159	187	156
CUGCAACAUAACUUCUUCGUCCUAGAAGACUAGGAUAUCAGGAAACUGAGAAGGAGUCUCUGCAGUGAUGUUGCAGUUAGGACGA [KL-SSFMN-A7]	139	135	115	160	138
UGACUGGAUGGAAGGAGCGCUAAACUCCUAGUGAUGUUAGGGACACGAGACAAAGUCUUGAAGCAGGUAGGUCGCCAUCUAGUCU [FiskerMod 9 - Jieux - Same State - Arginine B]	217	187	229	228	238
AGUGGUGUUGUGUUAUGUUUGGGAAGUGAUCGAGGACCGGUACGGCCGCCACUCGAGUGAUGAGUGAGUGAUGUUUGUUUAGGGA [whbob_SS_Tryp_A_m10]	927	636	1530	646	658
UGAUAGGACAGAAGGAGCGGAAGUGAUGUUUCCAAAAGGAAAGGUCGACAAAGUCGACCCUUCCAGGUAGGUCGCUGUCCUAUCU [ArgBX 8 #Palindromic #SwitchBubble #StaticStem]	88.2	90.5	82.9	84.9	81.5
GCCGUACGCAUGGAUACCAGCACAGGCCGAAGUGAUGUUUCGUGCGUAUAUUUGUGCUACUGCCCUUGGCAGCCAUGCGUACGGC	75.8	66.9	73.9	66.5	75.2
AAUCUCGUCCUGGAUACCAGUCGCACGGUUUGUCAUGUCAGCCAGUGAUGUUGCCUGCAUGACCCUUGGCAGCCAUUCUAUGAAU [theeternabot_exclusion_KL_Theo_B_45]	284	230	311	334	246
AAAAUAAUCCAGUGAUGUUGGUAUACAGAUACCAGCGACGAAAGUCGCCCUUGGCAGCUGUGGACGUACAAAAUAAGUACGUCCU	934	972	1210	592	813
AAUUUGGGUUCGGCCGCCACUCCAGUGAUGUUGGAUGGCGAAAUAAAGGCUAGACCAGGUUGCCGGAGGACCGGGAAUCCUGUAC [Qumabi]	182	152	164	139	112
GGAUAGGACAGAGGAUAUCCUUGAGGCAAGAAACUUGUCUCUAAAGGAUGAAUCCUAGUGAUGUUAGGAGAAGGCUGUCCUAUCG [FmnBX 14 - #SwitchBubble #StaticStem #Palindromic]	103	82.2	85	77.2	87.1
CUUAUGGAGUGUCGUACCGGACACUGGGAAGGAGCGCAAUUCUUUGCAGGUAGGUCGCCCAGUGAUGUUGGGUGGCGCUGUCGAA [Xebeor]	191	173	181	266	169
GCAGCUCGGGAGUGAUGUUCUCGUAGAGGAAAGGAUAUGUACUUAGACAGAAGGUUCGCAAUUUGCGGUCUUAAGAUAGAAUAAC [theeternabot_sameState_KL_FMN_A_40]	177	126	207	224	152
GCGGGCCAGACGGCCGCCACUCCGGGCAGUGAUGUUGCGAAACUUCUACUAGAGUGAUGUUCUACGAGGACCGGGUCGGAACGCG [Exclusion Tryptophan B Gf 13]	789	703	951	1000	578
AUCGUUGUCUGAGGAUAUCGGUUAUCUGUAGUGAUGUUACAGUAUAUUGAUAUUAAAGAUUCUAUUCGAGAAGGCAGACAACGUA [JR_Nu3_ExcFMNB_Sub023]	75.5	62.7	67.2	57.9	61.9
AAACGUUGGUGCGAUACCAGCUGAUCGGAAACGAUCUUGCUGGAGUGAUGUUCCAGGAAAAGCCCUUGGCAGCGCACCGACGAAA [MAT - Same State Theophlline B - Mod of Eli - D26]	950	659	1060	869	928
